Where a chain is given by its changes, count along the chain named. Like-named read-outs stand apart in the source and are kept apart here.

Test [1] has as its target T1, human FGF23 (human, UniProt Q9GZV9 25-251).
T1 construct: also called recombinant human FGF-23; Fibroblast Growth Factor 23
T1 sequence: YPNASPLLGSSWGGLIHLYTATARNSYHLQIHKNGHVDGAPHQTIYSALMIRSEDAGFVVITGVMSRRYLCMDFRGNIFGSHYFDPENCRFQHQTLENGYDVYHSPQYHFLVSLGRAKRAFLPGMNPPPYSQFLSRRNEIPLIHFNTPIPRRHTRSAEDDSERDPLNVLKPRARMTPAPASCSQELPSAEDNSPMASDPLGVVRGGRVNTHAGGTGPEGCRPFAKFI
Kind of test: ELISA, binding to human FGF23 (A450 against log mAb concentration).

For test [2], the target named is T1, human FGF23. In words: cell-based or functional assay.
For test [3], the target named is T1, human FGF23. In words: ELISA, binding to human FGF23 (A450 against log mAb concentration). The source holds these as a separate data set. In general terms: An ELISA detects its analyte on a solid surface through an enzyme-linked reagent.
The target in test [4] is T1, human FGF23. In words: cell-based or functional assay. The source holds these as a separate data set.

B1: ExA11 (antibody, V domains shown)
VH: QVQLVQSGAELKKPGASVKVSCKASGYTFTNHYMHWVRQAPGQGLEWMGIINPISGSTTYAQKFQGRVTMTRDTSSSTAYMDLSRLTSDDTAVYYCARDIVDAFDFWGQGTTVTVSS
VL: AIQLTQSPSSLSASVGDRVTITCRASQGISSALVWYQQKPGQAPRLLIYDASSLESGIPARFSGSGSGTDFTLTISSLEPEDFAVYYCQQFNDYFTFGQGTKLEIK
notes: Monoclonal anti-FGF23 antibody
Take B1: the EC50 – broadly, the concentration giving half of the maximal effect – in the test with human FGF23 [1] stood at 0.0267 µg/mL. Also, the “IC50, neutralisation of recombinant human FGF23-stimulated proliferation of NIH-3T3 cells (fluorescence)” value (from here on “IC50, neutralisation”) with human FGF23 [2] worked out at 0.411 µg/mL.

B2: ExA35 (antibody, V domains shown)
VH: QVQLLESGAVLARPGTSVKISCKASGYTFTNHYMHWVKQRPGQGLEWIGIINPITGSSSNAQKFQGRVTITRDTSTSTVFMELSSLRSEDTAVYYCARDIVDAFDFWGQGTLVTVSS
VL: B1 VL
notes: as for B1
In the test with human FGF23 [1], B2 yielded an EC50 of 0.0238 µg/mL. Besides, the “IC50, neutralisation” value with human FGF23 [2] stood at 0.355 µg/mL.

B3: ExC50 (antibody, V domains shown)
VH: B2 VH with T28S, I100L
VL: B1 VL with A1D, E55Q
notes: as for B1
In the test with human FGF23 [1], B3 gave an EC50 of 0.0204 µg/mL. In addition, the “IC50, neutralisation” value in the test with human FGF23 [2] was found to be 0.199 µg/mL.

B4: Exc23 (antibody, V domains shown)
VH: EVQLVQSGAEVRKPGASVKVSCKASGYTFTNHYMHWVRQAPGQGLEWMGIINPISGSTSNAQKLQGRVTFTRDTSANTAYMELSGLIPEDTAIYYCARDIVDAFDFWGQGTLVTVSS
VL: DIQMTQSPSSLSASVGDRVTITCKASQGISSALVWYQQKPGKAPKLLIYDASSLQTGVPSRFSGSGSGTDFTFTISSLQPEDIATYYCQQFNDYFSFGPGTKLEIK
notes: as for B1
B4: the EC50 with human FGF23 [3] was 0.0295 µg/mL.

B5: ExC17 (antibody, V domains shown)
VH: B4 VH
VL: B1 VL with A1D, E55Q, Y94L
notes: as for B1
In the test with human FGF23 [1], B5 registered an EC50 of 0.0181 µg/mL. The “IC50, neutralisation” value in the test with human FGF23 [2] turned out to be 0.2 µg/mL.

B6: ExA43 (antibody, V domains shown)
VH: B4 VH with D99E
VL: B1 VL
notes: as for B1
As for B6, in the test with human FGF23 [1], it took 0.0278 µg/mL to reach a half-maximal effect (EC50).

B7: Exc23.5 (antibody, V domains shown)
VH: B4 VH
VL: B4 VL with D1A
notes: as for B1
Take B7: the EC50 with human FGF23 [3] worked out at 0.0273 µg/mL.

B8: Exc23.1 (antibody, V domains shown)
VH: B4 VH
VL: B4 VL with Q55E
notes: as for B1
Turning to B8, in the test with human FGF23 [3], the EC50 stood at 0.0332 µg/mL. In addition, in the test with human FGF23 [4], the “IC50, neutralisation” value is 1.63 µg/mL.

B9: ExA60 (antibody, V domains shown)
VH: B4 VH with T28S, I54N, F106Y
VL: B4 VL with D1A, K24R, Q55E, T56S, S96T
notes: as for B1
Molecule B9 showed an EC50 with human FGF23 [1] of 0.0233 µg/mL. Also, the “IC50, neutralisation” value with human FGF23 [2] was 0.5 µg/mL.

B10: ExA28 (antibody, V domains shown)
VH: B4 VH
VL: B4 VL with D1A, K24R, Q55E, T56S, S96T
notes: as for B1
For the molecule B10, in the test with human FGF23 [1], the EC50 was 0.0248 µg/mL. In addition, in the test with human FGF23 [2], the “IC50, neutralisation” value came out at 0.316 µg/mL.

B11: Exc23.2 (antibody, V domains shown)
VH: B4 VH
VL: B4 VL with T56S
notes: as for B1
On to B11, for which the EC50 with human FGF23 [3] was 0.0262 µg/mL.

B12: Exc23.3 (antibody, V domains shown)
VH: B4 VH
VL: B4 VL with S96T
notes: as for B1
For B12, a half-maximal response with human FGF23 [3] (EC50) required 0.0286 µg/mL. Further, the “IC50, neutralisation” value with human FGF23 [4] was 1.29 µg/mL.

B13: Exc23.4 (antibody, V domains shown)
VH: B4 VH
VL: B4 VL with K24R
notes: as for B1
On to B13, for which, in the test with human FGF23 [3], a half-maximal effect (EC50) was put at 0.0266 µg/mL.

The record behind these values is patent US20220185876A1 (ATARGA, published 2022).
